Assay results as given in US20230079150A1, “METHODS FOR PREVENTION OR TREATMENT OF VIRUS-INDUCED ORGAN INJURY OR FAILURE WITH IL-22 DIMER” (priority 2020, published 2023).
Like-named read-outs stand apart in the source and are kept apart here.

Assays:
[1] = test system: C57BL/6 mice; assay: LPS acute lung injury mouse model: histopathology score; type: in vivo
Procedure: (§1) After approval from the Tulane University, Institutional Animal Care and Use Committee (protocol ID 607), equal numbers of male and female, 6-8 week old C57BL/6 mice (Charles River Laboratories, Cambridge, Mass.) were given acute lung injury (ALI) via intra-tracheally administered LPS. After obtaining appropriate depth of anesthesia using isoflurane, the high-dose LPS group (HDG) received 100 μg of LPS administered intra-tracheally. Approximately 30 minutes after LPS administration, 4 μg of F-652 was administered via tail vein injection (n=11), then compared to animals receiving sham injection (n=8) with phosphate-buffered saline (PBS). In the low-dose LPS group (LDG), 33.3 μg of LPS was administered intra-tracheally. F-652 was again administered at 30 minutes (n=9) and compared to sham injected animals (n=9). […]
Immediately after sacrifice, lung tissue from the right lower lobe was fixed in 4% paraformaldehyde and cut into sections. […] Lung injury induced by LPS was assessed by a blinded reviewer with a numerical scoring scale ranging from 0-4. Regions of lung injury in sections were scored for the extent of intimal thickening, alveolitis, and the presence of proteinaceous material in the alveolar space. […]

[2] = test system: H1N1 influenza (A/PR8 strain)
[3] = test system: H1N1 influenza (A/PR8 strain); type: in vivo, C57BL/6 mice
[4] = test system: C57BL/6 mice; assay: LPS acute lung injury mouse model: BAL cell counts; type: in vivo; settings: for BAL total cell counts: F-652 4 μg tail vein at 30 min
Procedure: After approval from the Tulane University, Institutional Animal Care and Use Committee (protocol ID 607), equal numbers of male and female, 6-8 week old C57BL/6 mice (Charles River Laboratories, Cambridge, Mass.) were given acute lung injury (ALI) via intra-tracheally administered LPS. After obtaining appropriate depth of anesthesia using isoflurane, the high-dose LPS group (HDG) received 100 μg of LPS administered intra-tracheally. Approximately 30 minutes after LPS administration, 4 μg of F-652 was administered via tail vein injection (n=11), then compared to animals receiving sham injection (n=8) with phosphate-buffered saline (PBS). In the low-dose LPS group (LDG), 33.3 μg of LPS was administered intra-tracheally. F-652 was again administered at 30 minutes (n=9) and compared to sham injected animals (n=9). The Interleukin-22:Fc (F-652) protein is a recombinant fusion protein (F-652) (Evive Biotech, Shanghai, China) with two human IL-22 molecules linked to the Fc portion of human immunoglobulin G2, which extends the half-life of the molecule.
Euthanasia and bronchoalveolar lavage (BAL) was carried out on post-injury day 4. After obtaining appropriate levels of anesthesia with inhaled isoflurane, the trachea was cannulated using a 26 gauge needle and BAL was performed with three successive washes using 1 mL of PBS. Next, a small segment of the left lower lobe was removed and saved for RNA isolation. Finally, 1 cc of 4% paraformaldehyde was injected to the lung for fixation.
The BAL fluid was then centrifuged at 500×gravity for 5 minutes. Cells were obtained from the BAL after centrifuge and cell counts performed. Cells were then affixed to glass slides and stained with Wright's stain. To quantify protein in the BAL supernatant, a Bradford protein assay (Bio-Rad Laboratories) was performed. Protein was quantified by measuring absorbance at 595 nm on a BMG Labtech FLUOstar Optima plate reader. In addition, the BAL supernatant was used to measure pro-inflammatory cytokines using a Milliplex Mouse Cytokine/Chemokine Magnetic Bead Panel (Millipore Sigma). The 32 cytokines measured included Eotaxin, Granulocyte Colony-Stimulating Factor (G-CSF), Granulocyte-Monocyte Colony-Stimulating Factor (GM-CSF), Interferon-γ (IFN-γ), Interleukin-1α (IL-1α), IL-1, IL-2, IL-3, IL-4, IL-5, IL-6, IL-7, IL-9, IL-10, IL-12 (p40 segment), IL-12 (p70 segment), IL-13, IL-15, IL-17, Interferon-γ induced protein 10 (IP-10), keratinocyte chemoattractant (KC), leukemia inhibitory factor (LIF), lipopolysaccharide-induced CXC chemokine (LIX), monocyte chemoattractant protein-1 (MCP-1), macrophage colony-stimulating factor (M-CSF), monokine induced by gamma-interferon (MIG), MIP-1α, macrophage inflammatory protein-1β/CCL4 (MIP-1β), MIP-2, regulated upon activation, normal T-cell expressed and presumably secreted (RANTES), tumor necrosis factor-α (TNF-α), vascular endothelial growth factor (VEGF). Human IL-22 was measured using an IL-22 Human ELISA kit (ThermoFisher Scientific). Mouse IL-22 was measured using an IL-22 Mouse/Rat Quantikine ELISA kit (R&D Systems).

[5] = test system: C57BL/6 mice; assay: LPS acute lung injury mouse model: lung RNA-seq pathway analysis; type: in vivo; settings: high-dose LPS injury; lung tissue
Procedure: as §1, with “(PBS).” for “(PBS). In the low-dose LPS group (LDG), 33.3 μg of LPS was administered intra-tracheally. F-652 was again administered at 30 minutes (n=9) and compared to sham injected animals (n=9).”
Lung tissue was homogenized in Trizol buffer (Life Technologies) and total RNA extraction was performed according to Trizol manufacturer's instructions. […] RNA quantity and quality were assessed using NanoDrop and Agilent RNA ScreenTape with Agilent 4150 TapeStation system. SMART-Seq Stranded total RNA sample prep kit (Takara Bio USA, Inc.) was used for library preparation as specified in the user manual, followed by Agilent DNA 1000 kit validation with Agilent 4150 TapeStation system and quantification by Qubit 2.0 fluorometer. […] Cluster generation and 1×75 bp single read single-indexed sequencing was performed by High-Output kit v2.5 (75 cycles) on Illumina NextSeq 550. Raw reads were processed and mapped. […]

[6] = test system: C57BL/6 mice; assay: LPS acute lung injury mouse model: BAL protein (Bradford assay); type: in vivo; settings: F-652 4 μg i.v., day 4
Procedure: as §1
(§2) The BAL fluid was then centrifuged at 500×gravity for 5 minutes. […] To quantify protein in the BAL supernatant, a Bradford protein assay (Bio-Rad Laboratories) was performed. Protein was quantified by measuring absorbance at 595 nm on a BMG Labtech FLUOstar Optima plate reader. […] Human IL-22 was measured using an IL-22 Human ELISA kit (ThermoFisher Scientific). Mouse IL-22 was measured using an IL-22 Mouse/Rat Quantikine ELISA kit (R&D Systems).

[7] = test system: mouse IL-22; assay: LPS acute lung injury mouse model: endogenous mouse IL-22 ELISA in BAL; type: in vivo, mice; settings: low-dose LPS; F-652 4 μg tail vein; day 4; sham non-detectable
Procedure: as §1, §2

[8] = test system: H1N1 influenza (A/PR8 strain); type: in vivo, C57BL/6 mice; remark: listed apart in the source
[9] = test system: H1N1 influenza (A/PR8 strain); type: in vivo, C57BL/6 mice; settings: aged hosts; treated for 3 weeks

B1: F-652: recombinant IL-22 dimer consisting of two monomeric subunits each comprising a sequence shown in SEQ ID NO: 24 (protein)
chain 1: APISSHCRLDKSNFQQPYITNRTFMLAKEASLADNNTDVRLIGEKLFHGVSMSERCYLMKQVLNFTLEEVLFPQSDRFQPYMQEVVPFLARLSNRLSTCHIEGDDLHIQRNVQKLKDTVKKLGESGEIKAIGELDLLFMSLRNACIGSGGGSGGGGSGGGGSVECPPCPAPPVAGPSVFLFPPKPKDTLMISRTPEVTCVVVDVSHEDPEVQFNWYVDGVEVHNAKTKPREEQFNSTFRVVSVLTVVHQDWLNGKEYKCKVSNKGLPASIEKTISKTKGQPREPQVYTLPPSREEMTKNQVSLTCLVKGFYPSDIAVEWESNGQPENNYKTTPPMLDSDGSFFLYSKLTVDKSRWQQGNVFSCSVMHEALHNHYTQKSLSLSPGK
chain 2: B1 chain 1
modifications: homodimer
- histopathology injury score (scale 0-4) ([1]; high-dose LPS injury, sham 2.0): 1.0
- histopathology scores, F-652 treated vs sham ([1]; low dose LPS injury): did not show any difference
- mice lost during the treatment phase ([2]; aged mice, Days 21-64 post-infection, F-652 200 μg/kg once weekly for 3 weeks, no PBS treated mice lost): 3 mice
- mice lost during the treatment phase ([2]; aged mice, F-652 200 μg/kg once weekly, 6-week treatment group): 2 mice
- mice lost during the treatment phase ([2]; young groups, F-652 200 μg/kg once weekly): no mice were lost
- body weight, F-652 vs PBS treatment groups ([2]; young or aged mice, Days 21-64 post-infection): no notable differences
- influenza specific CD8+ T cells (Total CD8+) compared to PBS control ([3]; aged mice, 3-week treatment): significantly decreased
- lung infiltrating neutrophils and inflammatory monocytes compared to 3-week F-652 treatment ([3]; aged mice, 6-week F-652 treatment): even more decrease
- lung infiltrating neutrophils and inflammatory monocytes compared to PBS control ([3]; aged mice, F-652 200 μg/kg weekly for 3 weeks, Days 62-65 post-infection): decreased significantly
- CD8+ T cells expressing CD69+ or CD69+/CD103+ compared to PBS control ([3]; both young and aged hosts): decreased significantly
- total number of CD8+ T cells ([3]; young mice, 3-week treatment): no significant difference
- lung infiltrating neutrophils or inflammatory monocytes, PBS vs F-652 ([3]; young mice, treated for 3 weeks or 6 weeks): no significant difference
- BAL total cell counts ([4]; high-dose LPS (100 μg intra-tracheal), day 4, sham 3.15×10^6): 5.40×10^5 cells
- BAL macrophage counts ([4]; high-dose LPS, F-652 4 μg tail vein, day 4, sham 2.72×10^6): 1.21×10^5 cells
- BAL neutrophil counts ([4]; high-dose LPS, F-652 4 μg tail vein, day 4, sham 8.99×10^5): 3.69×10^4 cells
- BAL lymphocyte counts ([4]; high-dose LPS, F-652 4 μg tail vein, day 4, sham 213,225): 2,163 cells
- BAL total cell counts ([4]; low-dose LPS (33.3 μg intra-tracheal), post-injury day 4, sham 433,889): 364,444 cells
- BAL lymphocyte count ([4]; low-dose LPS, F-652 4 μg tail vein, day 4, sham 6,556): 1,864 cells
- BAL neutrophil count ([4]; low-dose LPS, F-652 4 μg tail vein, day 4, sham 6,869): 1,653 cells
- BAL macrophage count ([4]; low-dose LPS, F-652 4 μg tail vein, day 4, sham 429,262): 290,611 cells
- Macrophage Inflammatory Protein-1β (CCL4) expression (RNA-seq) [5]: decrease
- Tnc, COL1a1, Col6a3 and Col1a2 expression (RNA-seq) [5]: increased
- BAL protein ([6]; high-dose LPS injury, sham 0.38): 0.55 µg/µL
- BAL protein ([6]; low-dose LPS injury, sham 0.25): 0.15 µg/µL
- endogenous mouse IL-22 level in BAL [7]: 1.22 pg/mL
- tissue dampening (G) by FOT ([8]; aged H1N1 infected mice, baseline/tidal breathing, 3-week treatment): less resistance in small airways
- static compliance (Cst) from PV loops relative to PBS controls ([8]; aged mice): increased static compliance
- impedance following maximization of available lung volume ([8]; following airway recruitment maneuver, aged and young): has no effect
- lung histology (H&E, Masson's Trichrome, Sirius Red, PAS) [9]: ameliorates much of the H1N1-induced pathology
